In patent publication US20190255165A1 (AMAL THERAPEUTICS, published 2019):

Experiments:
human TLR2 = target: T1, human TLR2 (human, UniProt O60603 21-784); assay: inferred from HEK-Blue hTLR2 reporter cells (QuantiBlue OD and IL-8 ELISA)
T1 construct: whole, on cells; Presented on HEK-Blue hTLR2 reporter cells; also called hTLR2

human TLR4 = target: T2, human TLR4 (human, UniProt O00206 24-839); assay: inferred from IL-8 secretion (ELISA) of HEK-hTLR4 cells, 1 µM
T2 construct: whole, on cells; Presented on HEK-hTLR4 cells; also called hTLR4
T2 sequence (O00206 24-839): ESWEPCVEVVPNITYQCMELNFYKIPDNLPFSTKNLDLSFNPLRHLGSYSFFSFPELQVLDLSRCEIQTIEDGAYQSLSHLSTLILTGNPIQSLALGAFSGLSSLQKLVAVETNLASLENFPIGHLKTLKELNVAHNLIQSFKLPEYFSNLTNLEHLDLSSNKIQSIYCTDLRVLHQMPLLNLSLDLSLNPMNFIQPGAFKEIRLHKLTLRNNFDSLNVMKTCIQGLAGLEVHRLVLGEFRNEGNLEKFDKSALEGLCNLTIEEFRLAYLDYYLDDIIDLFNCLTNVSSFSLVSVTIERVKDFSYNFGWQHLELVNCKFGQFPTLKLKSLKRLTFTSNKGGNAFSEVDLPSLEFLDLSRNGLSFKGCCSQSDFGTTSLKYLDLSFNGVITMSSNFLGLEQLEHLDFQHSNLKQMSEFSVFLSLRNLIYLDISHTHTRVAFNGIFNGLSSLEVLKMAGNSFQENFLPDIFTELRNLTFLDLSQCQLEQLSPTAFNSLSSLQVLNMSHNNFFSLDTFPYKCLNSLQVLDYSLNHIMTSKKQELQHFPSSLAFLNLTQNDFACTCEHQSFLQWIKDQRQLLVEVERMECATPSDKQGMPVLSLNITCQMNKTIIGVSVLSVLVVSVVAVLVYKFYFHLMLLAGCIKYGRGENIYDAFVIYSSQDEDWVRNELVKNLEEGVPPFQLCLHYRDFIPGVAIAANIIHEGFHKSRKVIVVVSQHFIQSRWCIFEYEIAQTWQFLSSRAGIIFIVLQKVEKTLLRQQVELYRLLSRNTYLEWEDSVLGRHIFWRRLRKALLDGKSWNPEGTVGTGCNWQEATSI

T1 sequence (O60603 21-784): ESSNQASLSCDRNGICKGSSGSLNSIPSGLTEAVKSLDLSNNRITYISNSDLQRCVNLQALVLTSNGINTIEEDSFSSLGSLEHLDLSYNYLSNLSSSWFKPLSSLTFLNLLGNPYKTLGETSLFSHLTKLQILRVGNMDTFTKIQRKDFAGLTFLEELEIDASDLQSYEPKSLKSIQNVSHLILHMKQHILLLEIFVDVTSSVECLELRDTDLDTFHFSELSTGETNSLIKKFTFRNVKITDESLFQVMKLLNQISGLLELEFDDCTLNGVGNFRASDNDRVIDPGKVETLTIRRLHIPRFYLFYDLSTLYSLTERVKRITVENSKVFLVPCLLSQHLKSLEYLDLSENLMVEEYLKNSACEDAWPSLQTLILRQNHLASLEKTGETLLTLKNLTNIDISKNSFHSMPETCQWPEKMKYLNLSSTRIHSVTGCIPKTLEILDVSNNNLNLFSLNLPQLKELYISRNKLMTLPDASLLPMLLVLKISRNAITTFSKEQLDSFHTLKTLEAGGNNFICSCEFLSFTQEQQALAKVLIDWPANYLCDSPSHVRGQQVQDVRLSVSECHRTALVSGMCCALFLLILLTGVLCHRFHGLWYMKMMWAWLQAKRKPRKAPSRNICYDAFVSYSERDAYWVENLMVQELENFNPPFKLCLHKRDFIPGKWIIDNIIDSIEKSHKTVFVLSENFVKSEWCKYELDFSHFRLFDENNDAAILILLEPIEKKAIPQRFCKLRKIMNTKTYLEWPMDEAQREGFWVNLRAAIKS

Row | Binder | binding result (human TLR2) | binding result (human TLR4)
1 | Z13Mad5Anaxa (other, Recombinant fusion protein with N-terminal MHHHHHH; 18973 Da; also called fusion protein of cell-penetrating peptide Z13, MAD5 cargo and TLR peptide agonist Anaxa (C-terminal)) MHHHHHHKRYKNRVASRKSRAKFKQLLQHYREVAAAKSSENDRLRLLLKESLKISQAVHAAHAEINEAGREVVGVGALKVPRNQDWLGVPRFAKFASFEAQGALANIAVDKANLDVEQLESIINFEKLTEWTGSSTVHEILCKLSLEGDHSTPPSAYGSVKPYTNFDAE | binds | binds
2 | AnaxaZ13Mad5 (other, Recombinant fusion protein with N-terminal MHHHHHH; 18973 Da; also called AnaxZ13Mad5; fusion protein with Anaxa at the N-terminal position, Z13 and MAD5 cargo) MHHHHHHSTVHEILCKLSLEGDHSTPPSAYGSVKPYTNFDAEKRYKNRVASRKSRAKFKQLLQHYREVAAAKSSENDRLRLLLKESLKISQAVHAAHAEINEAGREVVGVGALKVPRNQDWLGVPRFAKFASFEAQGALANIAVDKANLDVEQLESIINFEKLTEWTGS | binds | 
3 | EDAZ13Mad5 (other, Recombinant fusion protein with N-terminal MHHHHHH; 25,057 Da; also called fusion protein of TLR4 peptide agonist EDA (N-terminal), Z13 and MAD5 cargo) MHHHHHHNIDRPKGLAFTDVDVDSIKIAWESPQGQVSRYRVTYSSPEDGIRELFPAPDGEDDTAELQGLRPGSEYTVSVVALHDDMESQPLIGIQSTKRYKNRVASRKSRAKFKQLLQHYREVAAAKSSENDRLRLLLKESLKISQAVHAAHAEINEAGREVVGVGALKVPRNQDWLGVPRFAKFASFEAQGALANIAVDKANLDVEQLESIINFEKLTEWTGS |  | binds
